Results on 14 molecules are retold here after patent publication US20220403025A1.

B1: 1139_P01_E04 (scFv) (scFv)
scFv: QVQLQQSGPGLVKPSQTLSLTCAISGDSVSSNSAAWNWIRQSPSRGLEWLGRTYYRSKWYNDYAVSVRSRITINPDTSKNQFSLQLNSVTPEDTAVYYCARSWNDAFDIWGQGTTVTVSSGGGGSGGGGSGGGASDIVMTQSPSTLSASIGDRVTITCRAGQSISTWLAWYQQKPGKAPKLLIYDASSLESGVPLRFSGSGSGTDFTLTISSLQPEDFATYYCQQSYSTPLTFGGGTKVEIK
B2: 1245_P01_G09 (scFv) (scFv)
scFv: QVQLQQSGPGLVKPSQTLSLTCAISGDSVSSNSAAWNWIRQSPSRGLEWLGRTYYGSKWYNEYALSVKSRIIINPDTSKNQFSLQLNSVTPEDTAVYYCARDYYYSMDVWGQGTLVTVSSGGGGSGGGGSGGGASDIVMTQSPSTLSASIGDRVTITCRAGQSISTWLAWYQQKPGKAPKLLIYDASSLESGVPLRFSGSGSGTEFTLAISSLQPDDFATYYCQQSYSTPVTFGQGTKVEIK
B3: 1252_P01_C08 (scFv) (scFv)
scFv: EVQLLESGGGLVQPGRSLRLSCAASGFTVSSNYMSWVRQAPGKGLEWVSVIYSGGSTYYADSVKGRFTISRDNSKNTLYLQMNSLRAEDTAVYYCASPIELGAFDIWGQGTLVTVSSGGGGSGGGGSGGGASSYELTQPPSVSVAPGKTARITCGGNNIGSQSVHWYQQKPGQAPMLVIYYDSDRPSGIPERFSGSNSGNTATLTISRVEAGDEADYYCQVWDSSSDHVVFGGGTKLTVL
B4: 1251_P02_G10 (scFv) (scFv)
scFv: EVQLVESGGGLVQPGGSLRLSCAASGFTFSDYYMSWIRQAPGKGLEWVSYISSSGSTIYYADSVKGRFTISRDNAKNSLYLQMNSLRAEDTAVYYCARHSWNDAFDIWGRGTLVTVSSGGGGSGGGGSGGGASDIQMTQSPSSLSASVGDRVTITCRASQSISSHLNWYQQKPGKAPKLLIYAASSLQSGVPSRFSASGSGTDFTLTISSLQPEDFATYYCQQSYSTLLTFGGGTKVEIK
B5: 1141_P01_E01 (scFv) (scFv)
scFv: QVQLVQSGAEVKKPGESLKISCKGSGYSFTSYWIGWVRQMPGKGLEWMGIIYPGDSDTRYSPSFQGQVTISADKSISTAYLQWSSLKASDTAMYYCARHQVDTRTADYWGQGTLVTVSSGGGGSGGGGSGGGASQSALTQPASVSGSPGQSVTISCTGTRSDVGGYNYVSWYQHHPGKAPKLMIYEVSNRPSGVSNRFSGSKSGNTASLTISGLQAEDEADYYCSSYTSTSTLVFGGGTKLTVL
B6: 1245_P02_G04 (scFv) (scFv)
scFv: QVQLQQSGPGLVKPSQTLSLTCAISGDSVSSKSAAWNWIRQSPSRGLEWLGRTYYRSKWSTDYAASVKSRITINPDTSKNQLSLQLNSVTPEDTAVYYCARTWSGYVDVWGQGTLVTVSSGGGGSGGGGSGGGASDIQMTQSPPALSASVGDRVTITCRASQDINDWLAWYQHKPGKAPKLLIYDASSLESGVPSRFSGSGSGTEFTLTISSLQPDDFATYYCQQSYSTPQVTFGQGTRLEIK
B7: 1245_P01_E07 (scFv) (scFv)
scFv: QVQLVESGGGLVKPGGSLRLSCAASGFTFSDYYMSWIRQAPGKGLEWVSYISSSGSTIYYADSVKGRFTISRDNAKNSLYLQMNSLRAEDTAVYYCARVDYADAFDIWGQGTLVTVSSGGGGSGGGGSGGGASDIQMTQSPSSLSASVGDRVTIACRAGQSIGTYLNWYQQKPGKAPKLLIYVASSLQSGVPSRFSGSGSGTEFTLTISSLQPEDFATYYCQQSYSTLLTFGRGTKVEIK
B8: 1245_P02_F07 (scFv) (scFv)
scFv: QVQLQQSGPGLVKPSQTLSLTCVISGDSVSSNSAAWNWIRQSPSRGLEWLGRTYYRSKWYNDYAVSVKSRITINPDTSKNQFSLQLNSVTPEDTAVYYCARDYYYSMDVWGQGTMVTVSSGGGGSGGGGSGGGASDIQMTQSPSTLSASVGDRVTITCRASQSISSWLAWYQQKPGKAPKLLIYDASSLESGVPLRFSGSGSGTEFTLTISSLQPDDFATYYCQQSHSHPPTFGPGTKVDIK
B9: 1251_P02_C05 (scFv) (scFv)
scFv: EVQLLESGGGLVQPGGSLRLSCAASGFTFSSYAMSWVRQAPGKGLEWVSAISGGGGTTYSSDSVKGRFTISRDNSKNTLYLQMNSLRAEDTAVYYCARDSGVAFDIWGQGTLVTVSSGGGGSGGGGSGGGASDIQMTQSPSFLSASVGDRVTITCRASQNIRTWLAWYQQKPGRAPKLLIYDASSLESGVPSRFSGSGSGTDFTLTISSLQPEDFATYYCQQFKRYPPTFGLGTKVEIK
B10: 1251_P02_G10 (IgG1) (antibody, V domains shown)
VH: EVQLVESGGGLVQPGGSLRLSCAASGFTFSDYYMSWIRQAPGKGLEWVSYISSSGSTIYYADSVKGRFTISRDNAKNSLYLQMNSLRAEDTAVYYCARHSWNDAFDIWGRGTLVTVSS
VL: DIQMTQSPSSLSASVGDRVTITCRASQSISSHLNWYQQKPGKAPKLLIYAASSLQSGVPSRFSASGSGTDFTLTISSLQPEDFATYYCQQSYSTLLTFGGGTKVEIKR
B11: 1245_P02_G04 (IgG1, made in HEK) (antibody, V domains shown)
VH: QVQLQQSGPGLVKPSQTLSLTCAISGDSVSSKSAAWNWIRQSPSRGLEWLGRTYYRSKWSTDYAASVKSRITINPDTSKNQLSLQLNSVTPEDTAVYYCARTWSGYVDVWGQGTLVTVSS
VL: DIQMTQSPPALSASVGDRVTITCRASQDINDWLAWYQHKPGKAPKLLIYDASSLESGVPSRFSGSGSGTEFTLTISSLQPDDFATYYCQQSYSTPQVTFGQGTRLEIK
B12: AD3gly (defucosylated AD3 made in engineered CHO) (antibody, V domains shown)
VH: EVQLQQSGPGLVKPSQTLSLTCAISGDSVSSKSAAWNWIRQSPSRGLEWLGRTYYRSKWSTDYAASVKSRITINPDTSKNQLSLQLNSVTPEDTAVYYCARTWSGYVDVWGQGTLVTVSS
VL: DIQMTQSPPALSASVGDRVTITCRASQDINDWLAWYQHKPGKAPKLLIYDASSLESGVPSRFSGSGSGTEFTLTISSLQPDDFATYYCQQSYSTPQVTFGQGTRLEIK
B13: AD3 (variant G04, made in CHO) (antibody, V domains shown)
VH: EVQLQQSGPGLVKPSQTLSLTCAISGDSVSSKSAAWNWIRQSPSRGLEWLGRTYYRSKWSTDYAASVKSRITINPDTSKNQLSLQLNSVTPEDTAVYYCARTWSGYVDVWGQGTLVTVSS
VL: DIQMTQSPPALSASVGDRVTITCRASQDINDWLAWYQHKPGKAPKLLIYDASSLESGVPSRFSGSGSGTEFTLTISSLQPDDFATYYCQQSYSTPQVTFGQGTRLEIK
B14: AD4 (hinge modified AD3, made in CHO) (antibody, V domains shown)
VH: EVQLQQSGPGLVKPSQTLSLTCAISGDSVSSKSAAWNWIRQSPSRGLEWLGRTYYRSKWSTDYAASVKSRITINPDTSKNQLSLQLNSVTPEDTAVYYCARTWSGYVDVWGQGTLVTVSS
VL: DIQMTQSPPALSASVGDRVTITCRASQDINDWLAWYQHKPGKAPKLLIYDASSLESGVPSRFSGSGSGTEFTLTISSLQPDDFATYYCQQSYSTPQVTFGQGTRLEIK

L1 (DV1-GV4) antigen: soluble heterodimeric γδ TCR in leucine zipper format (TRDV1/TRGV4) (human), sequence (main, as listed by the source): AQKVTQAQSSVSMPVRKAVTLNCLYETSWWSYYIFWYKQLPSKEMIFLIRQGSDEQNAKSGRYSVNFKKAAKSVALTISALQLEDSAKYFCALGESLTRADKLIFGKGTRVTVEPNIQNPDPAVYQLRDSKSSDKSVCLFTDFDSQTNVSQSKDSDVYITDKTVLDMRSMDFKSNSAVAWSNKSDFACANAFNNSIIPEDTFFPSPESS

One test has as its target L1 (DV1-GV4) antigen: soluble heterodimeric γδ TCR in leucine zipper format (TRDV1/TRGV4) (human). Kind of test: DELFIA affinity ranking with 100 nM biotinylated L1.
In the case of B1, the DELFIA signal, 100 nM L1 worked out at 23800.
In the case of B2, the DELFIA signal, 100 nM L1 turned out to be 18400.
B3 yielded a DELFIA signal, 100 nM L1 of 1980.
Still for that read-out and setting: as for B4, the figure is 17100; as for B5, 137000.
In turn, B6 returned a DELFIA signal, 100 nM L1 of 5900.
Take B7: the DELFIA signal, 100 nM L1 is 163000.
B8 registered a DELFIA signal, 100 nM L1 of 10400.
Regarding B9, the DELFIA signal, 100 nM L1 is 65300.

A further test shares this target. Kind of test: SPR (MASS-2), IgG captured via protein G, L1 as analyte, steady-state 1:1 fit.
Regarding B10, the Kd (as a rule, a measure of binding affinity in units of concentration) is 829 nM.

The target of another test is Vδ1 γδ T cell receptor on skin-derived γδ T cells (human). Kind of test: cell-based or functional assay.
Molecule B10 displayed a TCR downregulation (EC50 µg/ml - 3 donors) of 0.849 µg/mL.

The next test has as its target L1 (DV1-GV4) antigen: soluble heterodimeric γδ TCR in leucine zipper format (TRDV1/TRGV4) (human). Kind of test: ELISA (DELFIA, time-resolved fluorometry) on antigen L1, titration of the mAb. For orientation: An ELISA detects its analyte on a solid surface through an enzyme-linked reagent.
B11: the EC50 (read off the curve) (as a rule, the concentration that produces a half-maximal response) came out at 0.07 µg/mL.
On to B12, for which the EC50 (read off the curve) turned out to be 0.07 µg/mL.
The molecule B13 returned an EC50 (read off the curve) of 0.07 µg/mL.
As to B14, the concentration giving a half-maximal response (EC50 (read off the curve)) turned out to be 0.07 µg/mL.
